According to the domain aggregation screens of Martell et al. (2025):
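Further: 20 min heating vs room temperature control held 20 min.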

Test: soluble fraction after stress (log2 fold change); higher = more stays soluble; pooled small domains, quantitative proteomics
Details: stress: 75 degC
In the case of “HMYDEAAIRKAVMTFVTDNRDERLDLAKISAVLTSKFGNINFDELGYKRFSSFIDSFPELRRNNTFVSLR”, the “soluble fraction (log2)” value is reported as -0.883. In the case of “HMYDFGVILQKLRKEKGFTQEQLARLIHKESSIISRYEKGLQNPTFETVKEFAAIFNVSMDYLAG”, the “soluble fraction (log2)” value is reported as -1.49. For “HMYEGNEFSSTGMFREDILAITAVHPMREDAVTELLARSNESEETLEMMIDEELLRRVAYGNHNYYMRRFR”, the “soluble fraction (log2)” value was -0.611. In the case of “HMYEHLKALRESLGMTQAEFGESVGVAKSTYNNYEIGARDPKSDFWIAVAQRYGVTIDYLMGFSDDPKKT”, the “soluble fraction (log2)” value is reported as -1.76. For “HMYELSDTEWKIIEQVGLGASNKEIAASLHFSEGTIRNYLSVILDKLSLRDRTQLAILYVKMN”, the “soluble fraction (log2)” value was -1.11. In the case of “HMYEPPTEDEKRVLSLLATRESIVRSDVDRLLGVSQSTANRILKQMIEKYLISQEGTGKNTKYIK”, the “soluble fraction (log2)” value is reported as -0.263. With “HMYESAMSDLHARIMSSDDPHGEIYKMLTQSGPEAKYIQDMYNETSIDRGLHPDDDFEDIIDAMVAELDD” the “soluble fraction (log2)” value was -0.68. For “HMYEVVPNMKGLSYEQAATALRTAGLEPELSDSIYDDKTRPGTVLEQSPRANTKVKPGRTVYLTVNAF”, the “soluble fraction (log2)” value was 0.0171. For “HMYFFNTFTQRLFDNPELTQEEAIRQMYPGISGVQTAEKLQENFMADVYIQAAIRQEIVVQLIR”, the “soluble fraction (log2)” value was -0.485. In the case of “HMYGSLGEYELAAVQWIYGKGKITTRELSSLIGKGLTLSSKTLRGLAAKGILEWHGNSKNDPSQFYSLP”, the “soluble fraction (log2)” value is reported as -2.42. For “HMYHADLIGLEARSTAGDKLGEVNAVYNFGAGDLIEIKMTDGNLEMLPFTRQYVPTVSIKDGFIIVQM”, the “soluble fraction (log2)” value was -1.32. With “HMYHIYPVADNDTPKLSADRLEYSLSNALLTNKLLNIDEIKKIYNDVILDKDEDGTLELSFKS” the “soluble fraction (log2)” value was 0.127. In the case of “HMYIDANTALLAKRIQAKNGFLPLSDKSTAEEIYAEFGISKKAFKKALGALYKERLVRIGDEGVVWV”, the “soluble fraction (log2)” value is reported as -2.46. With “HMYINVQNARTIASFRSSLWRMHRDFTNQGYITADGLKTFLEMGKLYEDAGGNDIYHSKLLPEITALEIKY” the “soluble fraction (log2)” value was -2.84. In the case of “HMYKDVVVPNTVGDSEEKAYQTLSALGLVVNITYDEDASKSDRVVTSQNPTNKTIKEGESVNIVVNKQP”, the “soluble fraction (log2)” value is reported as 0.573. With “HMYKIDFAEGDRVIIKGGAFSGLRATVVSLHPEKGMAKIKVYMFGDRETLVDIEVSQLEKDK” the “soluble fraction (log2)” value was -0.785. In the case of “HMYKTKVDIAYDMLMERITEGVYKPGEKLVITHISKELGISDIPVREAIRRLESEGYVKILPNQGAIVYD”, the “soluble fraction (log2)” value is reported as -0.671. For “HMYLGRKATLLSSISGEKMGNAEVLADGNLMSIYVKSLTGEPLSYGSTVLIIKHSEDQNFYLVQN”, the “soluble fraction (log2)” value was -3.54. With “HMYLQKGISNGKVYLSIVHGYRDPVTKKVRRKTIRSLGYLEDLEKQYADPIKHFEAVVAKMNEEEALE” the “soluble fraction (log2)” value was -1.88. In the case of “HMYLSNPTYRGDSLVDALTQIGVDASFASRRDLARKNGIENYTGSAKQNLELLQLLREGRLR”, the “soluble fraction (log2)” value is reported as 0.402. For “HMYLYADIYKKLEEKIKNMEVGEKLPSERAMVQEYGVSRNVLREALVLLSERGLIEIRPGKGSYVTNQQ”, the “soluble fraction (log2)” value was -1.17. With “HMYNKKAYVNTNSDFLNVRSEASTESSVVDKLARGTEVNIVGNIQNGFYPIVLNEKNAWVSSDWISFEKPT” the “soluble fraction (log2)” value was 0.053. With “HMYNNDEIEKIQTMYNAIYQLNDIEKALIMLFLEDKSYKEIAEIMGISEGNARIKMMRTKDKLKNLISKN” the “soluble fraction (log2)” value was -0.527. For “HMYNNGYVNSDRVNFRKGASTNSDIYKVLDKNTSVTILDYEGDWSKVKINDTVGYVYTKYITAG”, the “soluble fraction (log2)” value was -0.368. In the case of “HMYNTDAMGVRIGELRRAKGLTQEAFAKTLGISAQAVSKWETGLGFPDISLLPMIAETLGTKIETLFGAE”, the “soluble fraction (log2)” value is reported as -0.299. For “HMYPATGTVVTAGGHLNMRSEPDRSGAILARIPNGTALTLTGKNGDWYAATYAGRSGYVSAQYISLS”, the “soluble fraction (log2)” value was -0.421. With “HMYPDNSGDIQQLAQNIFRQENVSVDRDGLALISSRLGSDHAATRSEIEKLALLAGPGGTLTFETISEVLG” the “soluble fraction (log2)” value was -0.145. With “HMYPEDMMSLMRRALRLINHLESNRKDRHNSRQLELTESKIRRLARYYKGRGLIETEWAYKRDQLRLLV” the “soluble fraction (log2)” value was -0.532. With “HMYPIYDYISNMYLGKHLNAGMSLEEARGIMDEMLEKLLFDVPEEYHIDRDHFYEYLKKYYTERFSA” the “soluble fraction (log2)” value was -1.73. In the case of “HMYPQLIGFKVIDEDKGEVGVVKEVSESMHQILLTVMKGKKEILIPLAEEFITKVNRHKKELFMVLPDG”, the “soluble fraction (log2)” value is reported as -0.192. In the case of “HMYRLDVEISDEIKRDIDEETLSEIKGIIAEDPRPSYQNDETRIYRFTFAGREISFRVKDRTATVTEIL”, the “soluble fraction (log2)” value is reported as -0.921. For “HMYRPLYQQVYDFLVKQIAAGEWGPGESLPSEQALAGRLNVSQGTVRKALDALAADSLIDRRQGKGTYVAE”, the “soluble fraction (log2)” value was -0.236. With “HMYRPQQEFTMRDLFQNNLNGSESASVRRDALGAELGIGYGNAKRFLERLNHYGVSREEFTAALEKLESE” the “soluble fraction (log2)” value was -0.522. With “HMYRSGGYTGAGKDDEEAGVVHRNEFVNTADAVRNPHVKRFLDVFNVAQKDGTIRMLNTSQILERARLDA” the “soluble fraction (log2)” value was 0.115. In the case of “HMYRYGETPMVVVPDLIGRTVSDIYEEMNADFRLEKFGNGNTVISQAPKPGERVEQGSVIRVYLSGQDQ”, the “soluble fraction (log2)” value is reported as 0.0556. With “HMYSDERLQTFMELLPFFVEELSNKHVTRYNVWQNYREAYPNGYGRSQFFFHLGQNLEAKKK” the “soluble fraction (log2)” value was -1.34. For “HMYSIKEFSFEVTTPGQRLDLFLSEELIGQTRSSIQNLILKKYVTVNGQVSKASYKVKTGEFISVKIPV”, the “soluble fraction (log2)” value was -3.1. In the case of “HMYSINKTEFGERIKSAREELKMTQTQLAQLLKTSQTTVAKYEHGEQIPRADVLATISKATGKSTDWLLFG”, the “soluble fraction (log2)” value is reported as -0.268. With “HMYSKQRELIMEAVFKNRVHPTAEYVYKLLKKDHPELSLGTVYRNLNYWAENNMLKKINVPGGSDRFDGT” the “soluble fraction (log2)” value was 0.0438. With “HMYSLGPKERSIVSFIANRPGSRSGQIAKSLQIPLPTIKRILNGLVENKVIARHGIGAGTNYVVEDQA” the “soluble fraction (log2)” value was -0.711. In the case of “HMYSMSAPMPGVILEIKVAPGDQVNKGDVVMVLEAMKMKNDLHAARTGTVESIDINSGEQVKYGQVLLRFV”, the “soluble fraction (log2)” value is reported as -0.225. In the case of “HMYSQIGYGSSGSDVRKLQEILNGKGYNLSVDGQFGAKTKSAVRDYQSKNGLSVDGIVGVNTWGKLT”, the “soluble fraction (log2)” value is reported as -0.0992. For “HMYSYNKEEVGKRIKSIRQQKGLTQESFGELFGASKGNVATWEKGISLPNASRLREIADLVSITVEELLYG”, the “soluble fraction (log2)” value was -0.735. For “HMYTLGEESDGTVRLLELYDIIKNKNEKIFVVDELDRSLHPNLTFNFVKKYLSIENKSQLIVSTH”, the “soluble fraction (log2)” value was 0.0677. In the case of “HMYVKKSSFVKKSLNNYEFKITDNTNDLLIFYKGMLPDLFREEQGIVVEGLIDKNNNIVASKV”, the “soluble fraction (log2)” value is reported as 0.0603. With “HMYVSGVPAITSIERVSTPGRRVYAGYTTVPKVIGGMGVSILTTSRGVMTDAEARRQKVGGELLAKV” the “soluble fraction (log2)” value was 0.234. For “HMYVTGSAIRRLREKRKLTQAQLAAALSVSDKTVSKWETARGLPDITLLEPLARALQVSVPELLSGEEV”, the “soluble fraction (log2)” value was -1.58. For “HMYVVLYPGMARDEAVQVMNELQSRGIDYYEKNGNIYVPKTDENSLRMELANLGYPKTTNNYD”, the “soluble fraction (log2)” value was -0.0096. With “HMYYHQIIGLDVVDENGNTLGKIKEILSPGANDVWVVKRKQKNDLLLPVIDDVIKDVDLAAGKVHVELLEG” the “soluble fraction (log2)” value was -0.269.
